The source of these data is paper PMC8989322 (PLoS Pathogens, 2022).

Test [1] deals with T1, αTSR domain or ctCSP (residues 310–375 of P. falciparum 3D7 CSP) (Plasmodium falciparum 3D7, UniProt Q7K740).
T1 construct: circumsporozoite protein (CSP), P. falciparum 3D7, residues 310-375 (αTSR domain), followed by a 6xHis tag; pET28a; also called 3D7 peptide; source: E. coli SHUFFLE, purified (Ni cOmplete resin, gel filtration on Superdex 200)
Nature of the test: crystal structure; Fab mixed with ctCSP (310-375) in a 2:1 molar ratio, complex purified by size exclusion chromatography, sitting drop vapor diffusion at 20°C. Conditions: both partners purified.

For test [2], the target named is T2, biotinylated ctCSP Pf16 peptide (residues 283–375 of P. falciparum 3D7 CSP) (Plasmodium falciparum 3D7, UniProt Q7K740, biotin (position not given)).
T2 construct: circumsporozoite protein (CSP), P. falciparum 3D7, residues 283-375 (C-terminal domain); the results say biotinylated ctCSP (283-375); also called Pf16 C-term peptide; source: made by Biomatik (Wilmington, Delaware)
T2 sequence (Q7K740 283-375): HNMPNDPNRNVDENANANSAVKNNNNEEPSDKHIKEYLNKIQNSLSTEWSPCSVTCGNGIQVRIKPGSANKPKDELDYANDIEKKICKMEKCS
Put plainly: ELISA; expressed mAbs screened for reactivity to Pf16 C-term peptide, as previously described [36]. Conditions: both partners purified.

T1 sequence (Q7K740 310-375): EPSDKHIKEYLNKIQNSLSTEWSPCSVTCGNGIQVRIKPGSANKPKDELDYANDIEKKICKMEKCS

B1: Fab1488 (Fab, V domains shown)
VH: EVHLVESGGGLVKPGGSLRLSCAASGFTFSSYTMNWVRQAPGKGLEWVSSISSSSTYIYYADSVRGRFTISRDNAKNSLYLQMNSLRAEDSAVYYCARRAGGFDAYYFDYWGQGTLVTVSS
VL: not shown
notes: heavy chain of Fab1488; light chain of Fab1488; From an RTS,S/AS01 vaccinee; alpha-ctCSP class (IGHV3-21 or IGHV3-48 with IGLV3-21 or IGLV3-1); source: ExpiCHO cells, purified (HiTrap Protein G HP, size exclusion chromatography)
Turning to B1, in test [1], the binding result is “binds”.

B2: mAb234 (antibody, V domains shown)
VH: EVQLVESGGGLVKPGGSLRLSCAASGFNFSTHIMNWVRQAPGKGLEWVSSISSSGTYIYYADSMKGRFTISRDNPKNSLYLQMNSLRAEDTAVYYCARARGFIQFHYYMDVWGKGTTVAVSS
VL: SYVLTQPPSVSVAPGKTARITCGGNNIGSKSVHWHQQRPGQAPVLVVYDDKIRPSGIPERFSGSNSGNTATLIISRVEAGDEADYYCQVWHSSSDPVVFGGGTKLTVL
notes: variable region as the heavy chain of m1 (PDB 7RXI); as the light chain of m1 (PDB 7RXI); IgG (captured by anti-human Fc); source: 293F cells, purified (Protein G Sepharose)
For the molecule B2, the binding result in test [2] is “binds”.

B3: Fab234 (Fab, V domains shown)
VH: EVQLVESGGGLVKPGGSLRLSCAASGFNFSTHIMNWVRQAPGKGLEWVSSISSSGTYIYYADSMKGRFTISRDNPKNSLYLQMNSLRAEDTAVYYCARARGFIQFHYYMDVWGKGTTVAVSS
VL: SYVLTQPPSVSVAPGKTARITCGGNNIGSKSVHWHQQRPGQAPVLVVYDDKIRPSGIPERFSGSNSGNTATLIISRVEAGDEADYYCQVWHSSSDPVVFGGGTKLTVL
notes: heavy chain of Fab234; light chain of Fab234; From an RTS,S/AS01 vaccinee; alpha-ctCSP class (IGHV3-21 or IGHV3-48 with IGLV3-21 or IGLV3-1); source: ExpiCHO cells, purified (HiTrap Protein G HP, size exclusion chromatography)
With B3, in test [1], the binding result is “binds”.

B4: mAb352 (antibody, V domains shown)
VH: EVQLVESGGGLVKPGGSLRLSCAASGFSFSEYRMNWVRQAPGKGLEWVSFISSSGTYIDYADSVKGRFTISRDNVNNSLYLQMNNLRAGDTAVYYCARGMGIAVRRFDYWGQGTLVSVSS
VL: SYVLTQPPSVSVAPGQTAKITCGGNNIGSESVHWYQQKPGQAPVLVVYDDAVRPSGIPERFSGSNSRNTATLTISRVEAGDEAAYYCQVWDSSTVASFGGGTKLTVL
notes: variable region as the heavy chain of m3 (PDB 7S0X); as the light chain of m3 (PDB 7S0X); IgG (captured by anti-human Fc); source: 293F cells, purified (Protein G Sepharose)
As for B4, the binding result in test [2] is on record as “binds”.

B5: Fab352 (Fab, V domains shown)
VH: EVQLVESGGGLVKPGGSLRLSCAASGFSFSEYRMNWVRQAPGKGLEWVSFISSSGTYIDYADSVKGRFTISRDNVNNSLYLQMNNLRAGDTAVYYCARGMGIAVRRFDYWGQGTLVSVSS
VL: SYVLTQPPSVSVAPGQTAKITCGGNNIGSESVHWYQQKPGQAPVLVVYDDAVRPSGIPERFSGSNSRNTATLTISRVEAGDEAAYYCQVWDSSTVASFGGGTKLTVL
notes: heavy chain of Fab352; light chain of Fab352; From an RTS,S/AS01 vaccinee; alpha-ctCSP class (IGHV3-21 or IGHV3-48 with IGLV3-21 or IGLV3-1); source: ExpiCHO cells, purified (HiTrap Protein G HP, size exclusion chromatography)
As to B5, in test [1], the binding result was “binds”.

B6: mAb236 (antibody, V domains shown)
VH: EVQLVESGGGLVQPGGSLRLSCVASGFNFTTYSMNWVRQAPGKGLEWVSYISSHSNLIYYATSVKGRFTISRDNAKNSLYLQMNSLRAEDTALYYCARGGSLHPSAGADWIDPWGQGTLVTVSS
VL: SYELTQAPSVSVSPGQTATITCSGDKLGDKFTSWYQQKPGQSPVLVIYQDSKRPSGIPERFSASNSGNTATLTISGTRAMDEADYYCQAWDSNTYVFGTGTRVAVL
notes: variable region as the heavy chain of m2 (PDB 7RXJ); as the light chain of m2 (PDB 7RXJ); IgG (captured by anti-human Fc); source: 293F cells, purified (Protein G Sepharose)
For the molecule B6, the binding result in test [2] is recorded as “binds”.

B7: Fab236 (Fab, V domains shown)
VH: EVQLVESGGGLVQPGGSLRLSCVASGFNFTTYSMNWVRQAPGKGLEWVSYISSHSNLIYYATSVKGRFTISRDNAKNSLYLQMNSLRAEDTALYYCARGGSLHPSAGADWIDPWGQGTLVTVSS
VL: SYELTQAPSVSVSPGQTATITCSGDKLGDKFTSWYQQKPGQSPVLVIYQDSKRPSGIPERFSASNSGNTATLTISGTRAMDEADYYCQAWDSNTYVFGTGTRVAVL
notes: heavy chain of Fab236; light chain of Fab236; From an RTS,S/AS01 vaccinee; alpha-ctCSP class (IGHV3-21 or IGHV3-48 with IGLV3-21 or IGLV3-1); source: ExpiCHO cells, purified (HiTrap Protein G HP, size exclusion chromatography)
In the case of B7, the binding result in test [1] was “binds”.

B8: Fab1512 (Fab, V domains shown)
VH: KVQLVQSGGGVVQPGRSQRLSCAASGLTLSEYAMHWVRQAPGKGLEWVAVILSDGTKKEYADSVKGRFTISRDNSKNTLYLQMNSLRAEDTAVYYCATDDNILGHCRSKSCQRNYYHGMDVWGQGTTVSVSS
VL: DIVMTQSPLSLPVTPGEPASISCRSSQSLLHSNGKNYLDWYLQKPGQSPQLLIYLGSDRASGVPDRFSGSGSGTDFTLSISRVEAEDVGVYYCMQALQTPFTFGPGTKVDIK
notes: heavy chain of Fab1512 (23-amino-acid CDR H3); light chain of Fab1512; From an RTS,S/AS01 vaccinee; beta-ctCSP class; source: ExpiCHO cells, purified (HiTrap Protein G HP, size exclusion chromatography)
For the molecule B8, in test [1], the binding result is listed as “binds”.

B9: mAb1512 (antibody, V domains shown)
VH: KVQLVQSGGGVVQPGRSQRLSCAASGLTLSEYAMHWVRQAPGKGLEWVAVILSDGTKKEYADSVKGRFTISRDNSKNTLYLQMNSLRAEDTAVYYCATDDNILGHCRSKSCQRNYYHGMDVWGQGTTVSVSS
VL: DIVMTQSPLSLPVTPGEPASISCRSSQSLLHSNGKNYLDWYLQKPGQSPQLLIYLGSDRASGVPDRFSGSGSGTDFTLSISRVEAEDVGVYYCMQALQTPFTFGPGTKVDIK
notes: variable region as the heavy chain of m5 (PDB 7RXP); as the light chain of m5 (PDB 7RXP); IgG (captured by anti-human Fc); source: 293F cells, purified (Protein G Sepharose)
B9: the binding result in test [2] is “binds”.
